From US20090022782A1, “Blood Retainable Device Exhibiting Selective Degradability in Tumor Tissue” (NATIONAL UNIVERSITY CORP. HOKKAIDO UNIVERSITY, priority 2005, published 2009)
Ends that are not written are not given here. * marks the point of attachment. DOPE = dioleoylphosphatidylethanolamine, CCCCCCCC/C=C\CCCCCCCC(=O)OC[C@H](COP(=O)(O)OCCN*)OC(=O)CCCCCCC/C=C\CCCCCCCC; MeO‑PEG succinate = methoxy poly(ethylene glycol) succinate

Columns and labels:
MMP-2 [1] = biological target: T1, MMP-2 (Homo sapiens, UniProt P08253); test: Decomposition of the peptide by MMP-2, reverse phase HPLC; assay type: biochemical; settings: 0.5 mM peptide, MMP2 53 nM, 230 nM and 450 nM, 37° C., 2 hours
T1 construct: purchased Sigma
T1 sequence (P08253 110-660): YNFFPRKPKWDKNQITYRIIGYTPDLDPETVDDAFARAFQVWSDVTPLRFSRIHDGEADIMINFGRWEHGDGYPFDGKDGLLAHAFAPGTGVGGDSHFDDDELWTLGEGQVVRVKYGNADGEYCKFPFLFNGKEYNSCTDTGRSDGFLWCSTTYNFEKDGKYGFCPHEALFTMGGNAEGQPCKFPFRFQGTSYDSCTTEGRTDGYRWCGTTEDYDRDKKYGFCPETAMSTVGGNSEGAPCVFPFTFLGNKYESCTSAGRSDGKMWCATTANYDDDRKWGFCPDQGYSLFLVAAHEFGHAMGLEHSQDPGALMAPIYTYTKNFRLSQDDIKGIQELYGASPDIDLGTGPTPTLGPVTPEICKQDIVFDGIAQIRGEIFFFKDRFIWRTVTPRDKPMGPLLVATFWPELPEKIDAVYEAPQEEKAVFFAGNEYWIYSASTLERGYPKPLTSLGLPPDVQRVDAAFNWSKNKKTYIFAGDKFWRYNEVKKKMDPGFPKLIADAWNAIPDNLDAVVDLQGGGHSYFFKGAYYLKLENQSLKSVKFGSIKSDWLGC
Method: Matrix metalloproteinase 2 (MMP-2) was purchased from Sigma. DOPE-PEG was purchased from Avanti. Trypsin was purchased from Life Technologies. DISMIC was purchased from Advantec. Reverse phase HPLC was performed by using Model 1321H1 (GILSON), UV/VIS-155 (GILSON) as a detector, SOSMOSIL 5C18-AR-II (Nacalai Tesque) as a column, and 0.5% TFA-H2O and 0.5% TFA-acetonitrile filtered through Millicup-LH vacuum-driven bottletop filter unit (Millipore) as a mobile phase. The flow rate was 1.0 mL/minute.
First, it was examined whether or not the peptide was decomposed by MMP-2. A 0.5 mM peptide solution (25 μL) dissolved in a solution containing 10 mM HEPES (pH 7.4), 140 mM NaCl and 2 mM CaCl2 was analyzed by reverse phase HPLC. Further, MMP2 was added to the 0.5 mM peptide solution (25 μL) at a final concentration of 53 nM, 230 nM and 450 nM, each mixture was incubated at 37° C. for 2 hours, and then the whole volume of the mixture was analyzed by HPLC to confirm whether or not the peptide was decomposed by MMP2.

[2] = Particle diameter and aggregation of DOPE liposomes versus addition ratio of PEG-lipid; assay type: physicochemical; settings: for aggregation on incubation: DOPE liposomes with PEG-peptide-DOPE, 37° C.
Method: (§1) A 1 mM lipid solution dissolved in ethanol, of which 125 μL was taken as 100%, was put into test tubes at various molar ratios, and a 1 mM DOPE-PEG solution was also added as required. Chloroform was added in the same volume of ethanol to the mixture in each tube, and the mixture was stirred. Then, the solvent was evaporated in a desiccator to obtain a lipid membrane. After the preparation of the lipid membrane, a solution (250 μL) containing 20 mM HEPES (pH 7.4), 280 mM NaCl, and 4 mM CaCl2 was added, and after hydration for 30 minutes, the mixture was sonicated for 1 minute to prepare liposomes.
(§2) Then, to the prepared liposomes (50 μL), PBS (10 μL), 230 nM or 5.5 nM MMP-2 in terms of final concentration, and 230 nM bovine serum albumin in terms of final concentration were added, the mixture was incubated at 37° C., and after 2, 8 and 24 hours, the particle diameter was measured. […] Even with the addition of 1% of DOPE-PEG, liposomes having a particle size less than 200 nm and showing stable dispersion was successfully prepared.
Also in this experiment, liposomes having a particle size less than 200 nm and showing stable dispersion were similarly prepared with the addition of 1% of PEG-peptide-DOPE.

[3] = Particle diameter and zeta-potential of MENDs (Example 3); assay type: physicochemical
Method: In order to prepare a negatively charged compaction body, the charge ratio (+/−) was determined to be 1.5 according to the formula (1). To 30 μL of pDNA (0.5 mg/mL), 120 μL of 10 mM HEPES-HCl (pH 7.4) was added. To 5 μL of protamine (2 mg/mL), […] of 10 mM HEPES-HCl (pH 7.4) was added. Protamine was slowly added dropwise to the pDNA solution with stirring by a vortex mixer. Formation of the compaction body was confirmed by measurement of the particle diameter and zeta-potential.
Lipid solutions of 1 mM in ethanol, each of which 125 μL was taken as 100%, were put into test tubes at molar ratios of 30% DOTAP, 40% DOPE, and 30% Chol. As for addition of PEG-lipids, 1 mM PEG-DSPE solution or PEG-peptide-DOPE solution in ethanol was added at a molar ratio of 5% or 15% based on the lipids except for the PEG-lipids, which were taken as 100%. Chloroform was added in the same volume of ethanol to the mixture in each tube, and the mixture was stirred. Then, the solvent was evaporated in a desiccator to obtain a lipid membrane. Then, the compaction body solution (250 μL) was added to the lipid membrane, and the mixture was left standing at room temperature for 15 to 30 minutes for hydration, and then sonicated for 1 to 2 minutes. The particle diameter and the zeta-potential were measured. Any significant difference was not observed between the values measured for MENDs containing PEG-peptide-DOPE and MENDs containing PEG-DSPE, and thus it was considered that equivalent MENDs were successfully prepared.

MMP-2 [4] = biological target: T1, MMP-2; test: Evaluation of PEG cleavage by MMP-2 (aggregation / particle diameter of DOPE liposomes); assay type: biochemical; settings: for aggregation of the liposomes: DOPE liposomes containing PEG-peptide-DOPE at 10%
Method: It was evaluated whether or not the PEG-peptide-DOPE obtained in Example 1 was cleavable with MMP. For in vitro evaluation, a system was used with which the cleavage of PEG was detected on the basis of an increase in particle diameter. […] Cylinder-shaped lipids form a lamellar structure (bilayer structure), i.e., a liposome structure, whereas inverse cone-shape lipids form a […] (FIG. 1). It is known that when a PEG-lipid is added at a certain ratio to DOPE, the lipids form a lamellar structure and stably form liposomes. Therefore, if a matrix metalloproteinase is made to act on DOPE-containing liposomes prepared by using PEG-peptide-DOPE, thereby the peptide is decomposed and PEG is cleaved, DOPE molecules from which PEG is cleaved can no longer form liposomes, and take the hexagonal structure to initiate the aggregation. The above hypothesis was adopted as an evaluation method for PEG cleavage. Further, for in vitro evaluation of PEG cleavage, a method of measuring genetic expression activity was adopted. If the interaction of MEND and cell membranes is enhanced by cleavage of PEG, […].
as §1, §2

[5] = Particle diameter and zeta-potential of compaction body and MENDs (Example 4); assay type: physicochemical; settings: Example 4, in HBG; PEG-lipid ratio (5% or 15%) not given
Method: According to the formula (I) mentioned in Example 3, the charge ratio (+/−) was determined to be 1.5, and a compaction body of pDNA coding for luciferase and protamine was prepared in HEPES buffered glucose (10 mM HEPES, pH 7.4, 5% glucose, HBG).
In the same manner as that of Example 3, a lipid membrane consisting of 30% DOTAP, 40% DOPE, and 30% Chol was prepared. To this membrane, PEG-DSPE or PEG-peptide-DOPE was added at a molar ratio of 5% or 15%, and the mixture was evaporated to obtain lipid membranes. Then, the compaction body was added to each of these lipid membranes, and the mixtures were sonicated to prepare MEND, PEG-modified MEND containing PEG-DSPE, and PEG-modified MEND containing PEG-peptide-DOPE.

HEK293 cells = test: Gene expression (luciferase activity) after transfection with MENDs, HEK293 cells; assay type: cell-based, human
Method: (§3) By using D′MEM added with inactivated FBS (FBS final concentration: 10%), the human fibrosarcoma-derived HT1080 cells were cultured on a sterilized culture dish in a CO2 incubator (37° C., 5% CO2). When the cells reached 70% confluence, the cells were removed from the dish by using 0.5 mM EDTA-PBS, the cell suspension was diluted to a density of 1 to 5×10^4 cells/mL using fresh D′MEM, and the cells were subcultured on a sterilized dish. In a similar manner, human kidney […] HEK293 cells were cultured. In the case of the HEK293 cells, the cells were removed from the dish by using 0.05% Trypsin/0.5 mM EDTA-PBS, and subcultured.
(§4) One day before the transfection, the HT1080 cells and the HEK293 cells were each inoculated into 1 mL of a medium on a 24-well plate at a density of 4×10^4 cells/well. A sample, prepared to be corresponding to 0.4 μg of DNA, was diluted to 250 μL with FBS- and antibiotic-free D′MEM (hereinafter abbreviated as “D′MEM(−)”) in the case of a serum free medium, or diluted similarly with D′MEM in the case of serum containing medium. […] The luciferase activity (RLU) in 20 μL of the supernatant was measured, and proteins were measured according to the BCA method for the supernatant diluted 5 times with DDW to calculate RLU/mg protein.

HT1080 cells = test: Gene expression (luciferase activity) after transfection with MENDs, HT1080 cells; assay type: cell-based, human
Method: as §3, §4

[6] = MEND with PEG-lipid at molar ratio 5%
[7] = MEND with PEG-lipid at molar ratio 15%

## GGGVPLSLYSGGGG [peptide]
MMP-2 [1]
  decomposition of the peptide by MMP-2 (HPLC peak of degradation product): peak became larger in an enzyme concentration-dependent manner

## PEG-peptide-DOPE: MeO-PEG succinate bound to Gly-Gly-Gly-Val-Pro-Leu-Ser-Leu-Tyr-Ser-Gly-Gly-Gly-Gly, bound to dioleoylphosphatidylethanolamine; tested as component of liposomes and MENDs ({MeO‑PEG succinate}-GGGVPLSLYSGGGG-{DOPE})
[2]; PEG content up to 5%
  aggregation on incubation: aggregation was observed
[2]; addition amount of 10%
  aggregation on incubation: aggregation was not observed
[2]; DOPE liposomes, addition of 1% of PEG-peptide-DOPE
  particle size: less than 200 nm
[2]; DOPE liposomes, suggested by the results
  elevation of phase transition temperature compared with DOPE-PEG: did not elevate the phase transition temperature as much as DOPE-PEG
[3]; [6]
  particle diameter: 162.2 nm
  zeta-potential: +18.79 mV
[3]; [7]
  particle diameter: 141.2 nm
  zeta-potential: +2.80 mV
MMP-2 [4]; 5.5 nM MMP-2, 37° C.
  aggregation of the liposomes: Aggregation of the liposomes was not observed
MMP-2 [4]; 230 nM BSA, 37° C.
  aggregation of the liposomes: Aggregation was not observed
MMP-2 [4]; 230 nM MMP-2, 37° C.
  aggregation of the liposomes: aggregation was observed
MMP-2 [4]; in PBS, 37° C.
  aggregation of the liposomes: Aggregation of the liposomes was not observed
MMP-2 [4]; lipid in the state of constituting liposomes
  cleavage by MMP-2: cleaved by MMP-2
[5]
  particle diameter: 141 nm
  ξ -potential: 12.8 mV
HEK293 cells; MEND modified with 5% of PEG
  increase of gene expression compared with PEG-DSPE: 5 times
HEK293 cells; MEND modified with 15% of PEG
  gene expression activity compared with the PEG-DSPE modification group: did not give the increase of the gene expression activity
HT1080 cells; MEND modified with 5% of PEG
  increase of gene expression compared with PEG-DSPE: 35 times
HT1080 cells; MEND modified with 15% of PEG
  gene expression activity compared with the PEG-DSPE modification group: did not give the increase of the gene expression activity
